Assay results: US20200031927A1 (Memorial Sloan Kettering, published 2020)

B1: ET160-72 (antibody, human IgG1, V domains shown)
VH: QVQLVQSGGGVVRSGGSLRLTCAASGFTFGDYGMSWVRQAPGKGLEWVSGINWNGGGTGYADSVKGRFTISRDNAKDSLYLQMNSLRAEDTALYYCARVWGCGSTTCYEGADDAFDIWGQGTMVTVSS
VL: LPVLTQPPSISGAPRQRVTISCSGARSNIGNNAVNWYQQVPGEAPKLLIFYDDQQPSGISGRFSGSKSGTSASLAISGLQSEDEADYYCAAWDDSLNGWVFGGGTKLTVLG
notes: Tested as human IgG1 (hIgG1), lambda light chain
B2: ET160-73 (antibody, human IgG1, V domains shown)
VH: QVQLVQSGAEVKKPGESLKISCKGSGYSFTSYWIGWVRQMPGKGLEWMGIIYPGDSDTRYSPSFQGQVTISADKSISTAYLQWSSLKASDTAMYYCARGREQLWLDGMDVWGQGTTVTVSS
VL: DVVMTQSPLSLPVTLGQPASISCRSTQSLVHSDGNTYLNWFQQRPGQSPRRLIYGVSNRDFGVPDRFSASGSGTDFTLKINRVEAEDVGVYYCMQGTHWPLTFGQGTKVEIKR
notes: Tested as human IgG1 (hIgG1), kappa light chain
B3: ET160-42 (antibody, human IgG1, V domains shown)
VH: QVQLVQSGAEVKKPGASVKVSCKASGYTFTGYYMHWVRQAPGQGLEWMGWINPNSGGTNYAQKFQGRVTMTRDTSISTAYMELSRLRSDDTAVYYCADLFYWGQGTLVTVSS
VL: QSALTQPASVSGSPGQSITISCTGTSSDVGGYNYVSWYQQHPGKAPKLMIYDVSNRPSGVSNRFSGSKSGNTASLTISGLQAEDEADYYCSSYTSSNTLVFGTGTKVTVLG
notes: Tested as human IgG1 (hIgG1), lambda light chain; Clone from a human scFv phage display library
B4: ET160-77 (antibody, human IgG1, V domains shown)
VH: EVQLVETGGGLVKPGGSLRLSCAASGFTFSDYYMSWIRQAPGKGLEWVSYISSSSSYTNYADSVKGRFTISRDNAKNSLYLQMNSLRAEDTAVYYCAREGIAAADAFDIWGQGTMVTVSS
VL: SYELTQPPSVSVAPGQAATITCAGDNIESKSVNWYQQKPGQAPVLVVYDDTVRPSGIPERFSGSNSGNPATLTISRSEAGDEADYYCQVWDNRRDHVVFGGGTKVTVLG
notes: as for B1
B5: ET160-61 (antibody, human IgG1, V domains shown)
VH: QVQLVESGGGLVQPGRSLRLSCAASGFTFDDYAMHWVRQAPGKGLEWVSGISWNSGSIGYADSVKGRFTISRDNAKNSLYLQMNSLRAEDTAVYYCASSLRYFEWPIDYWGQGTLVTVSS
VL: NFMLTQPLSVSESPGKTVTISCTANGGSLASKYVQWFQQRPGSSPTTVIYDDNLRPSGVPDRFSGSIDTSSNSAALTISGLKTEDEADYYCQSYDNSSVVFGGGTKLTVLG
notes: as for B1
B6: ET160-74 (antibody, human IgG1, V domains shown)
VH: QVQLVQSGAEVKKPGSSVKVSCKASGGTFSSYAISWVRQAPGQGLEWMGWMNPNSGNTGYAQKFQGRVTMTRNTSISTAYMELSSLRSEDTAVYYCARYSFHLDGWGQGTLVTVSS
VL: QSVLTQPPSVSAAPGQKVTISCSGSSSNVGNNYVSWYQQVPGTAPKLLIYDNNRRPSGIPDRFSGSKSGTSATLGITGLQTGDEADYYCGTWDNSLRVELFGGGTKVTVLG
notes: as for B1

Assays:
[1] = target: T1, soluble KIR3DL1*001-Fc (human, UniProt P43629 22-340); assay: SPR (BIACORE T-100)
T1 construct: also called KIR3DL1 allele 001; KIR3DL1 allele-001 antigen; not shown: Fc domain

[2] = target: T2, soluble KIR3DL1*033-Fc (human, UniProt P43629 22-340); assay: SPR (BIACORE T-100)
T2 construct: also called KIR3DL1 allele 033; Allele 033; not shown: Fc domain

[3] = target: T3, soluble KIR3DL1*002-Fc (human, UniProt P43629 22-338); assay: SPR (BIACORE T-100)
T3 construct: also called KIR3DL1 allele 002; Allele 002; not shown: Fc domain

[4] = target: T3, soluble KIR3DL1*002-Fc; assay: SPR (BIACORE T-100), kinetics
[5] = target: T1, soluble KIR3DL1*001-Fc; assay: BLI (Forte-Bio), partial fit, IgG
[6] = target: T4, soluble KIR3DL1*007/015-Fc (human, UniProt P43629 22-338); assay: BLI (ForteBio QK), hIgG1
T4 construct: also called KIR3DL1 allele 007/015; CD158e allele 007/015; not shown: Fc domain

[7] = target: T1, soluble KIR3DL1*001-Fc; assay: BLI (ForteBio QK), hIgG1
[8] = target: T2, soluble KIR3DL1*033-Fc; assay: BLI (ForteBio QK), hIgG1
[9] = target: T3, soluble KIR3DL1*002-Fc; assay: BLI (ForteBio QK), hIgG1
[10] = target: T5, soluble KIR3DL1*020-Fc (human, UniProt P43629 22-339); assay: BLI (ForteBio QK), hIgG1
T5 construct: also called KIR3DL1 allele 020; CD158e allele 020; not shown: Fc domain

[11] = target: T1, soluble KIR3DL1*001-Fc; assay: BLI (ForteBio QK), hIgG1; ForteBio, hIgG1, allele 001 (Table 2)
[12] = target: T3, soluble KIR3DL1*002-Fc; assay: SPR (BIACORE T-100), kinetics; Biacore T-100, allele 002

T2 sequence (P43629 other isoform, or with tags, fused parts or gaps): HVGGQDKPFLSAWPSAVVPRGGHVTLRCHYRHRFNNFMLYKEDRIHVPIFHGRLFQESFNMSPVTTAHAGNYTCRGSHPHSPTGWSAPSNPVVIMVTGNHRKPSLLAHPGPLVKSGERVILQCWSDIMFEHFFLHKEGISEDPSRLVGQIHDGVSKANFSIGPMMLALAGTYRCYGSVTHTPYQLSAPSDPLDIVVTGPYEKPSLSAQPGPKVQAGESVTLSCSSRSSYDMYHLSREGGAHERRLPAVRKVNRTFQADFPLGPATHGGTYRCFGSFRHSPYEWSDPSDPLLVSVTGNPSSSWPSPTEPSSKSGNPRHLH
T3 sequence (P43629 other isoform, or with tags, fused parts or gaps): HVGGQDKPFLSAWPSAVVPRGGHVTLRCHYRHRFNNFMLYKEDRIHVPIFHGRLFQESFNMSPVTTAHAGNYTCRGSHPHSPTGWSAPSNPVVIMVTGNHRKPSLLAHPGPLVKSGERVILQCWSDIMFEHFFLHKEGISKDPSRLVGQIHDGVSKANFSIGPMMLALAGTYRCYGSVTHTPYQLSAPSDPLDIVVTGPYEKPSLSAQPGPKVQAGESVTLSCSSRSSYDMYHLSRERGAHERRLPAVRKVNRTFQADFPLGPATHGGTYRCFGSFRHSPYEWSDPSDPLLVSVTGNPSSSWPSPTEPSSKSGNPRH
T5 sequence (P43629 other isoform, or with tags, fused parts or gaps): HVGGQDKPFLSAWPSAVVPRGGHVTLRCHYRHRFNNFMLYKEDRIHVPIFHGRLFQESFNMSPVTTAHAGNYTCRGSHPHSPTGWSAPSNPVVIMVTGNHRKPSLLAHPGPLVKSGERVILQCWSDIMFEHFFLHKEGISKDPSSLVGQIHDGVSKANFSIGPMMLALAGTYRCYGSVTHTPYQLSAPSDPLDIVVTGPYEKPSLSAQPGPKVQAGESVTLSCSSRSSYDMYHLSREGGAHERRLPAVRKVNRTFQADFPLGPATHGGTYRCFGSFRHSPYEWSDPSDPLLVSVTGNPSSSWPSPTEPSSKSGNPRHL

Binder	Kd [1] [nM]	Kd [2] [nM]	Kd [3] [nM]	Kd [4] [nM]	koff [4] [s⁻¹]	kon [4] [M⁻¹ s⁻¹]	Kd [5] [nM]	koff [5] [s⁻¹]	kon [5] [M⁻¹ s⁻¹]	Kd [6] [nM]	Kd [7] [nM]	Kd [8] [nM]	Kd [9] [nM]	Kd [10] [nM]	Kd [11] [nM]	Kd [12] [nM]
B1	182	138	316	316	0.0159	50500	15.8	0.00212	134000	11.6	15.8	15.4	11.6	11.4	–	–
B2	136	55.6	124	124	0.00481	38900	21.2	0.00302	143000	16.1	21.2	14.4	16.3	15.7	–	–
B3	89.5	75.2	93.5	93.5	0.0171	183000	–	0.00221	172000	8.4	–	10.3	8.5	10.1	12.9	93.5
B4	53.1	48.3	197	197	0.00987	50000	13.9	0.00222	160000	11.4	13.9	13.1	10.9	10.5	–	–
B5	45.9	10.8	27.7	27.7	0.00232	84000	15.1	0.00193	127000	4.1	15.1	22.7	21.7	19.4	–	–
B6	11.9	62.2	108	108	0.0112	103000	13.3	0.00161	122000	10.1	13.3	11	8.6	11.2	–	–
